Laboratory results as given in article PMC5737377, “Structural insights into RapZ-mediated regulation of bacterial amino-sugar metabolism” (Nucleic Acids Research, 2017).

B1: RapZ-CTD (154–284) (domain or fragment, Escherichia coli, UniProt P0A894 154-284, looked up)
chain: GKRERELTMVFESFGFKHGIPIDADYVFDVRFLPNPHWDPKLRPMTGLDKPVAAFLDRHTEVHNFIYQTRSYLELWLPMLETNNRSYLTVAIGCTGGKHRSVYIAEQLADYFRSRGKNVQSRHRTLEKRKP
notes: RapZ, Escherichia coli, C-terminal domain, residues 154-284; also called C-terminal domain of RapZ; source: E. coli Rosetta, purified (Strep Trap, MonoS, gel filtration)
B2: full length Escherichia coli RapZ (natural protein, UniProt P0A894 1-284, looked up)
chain: MVLMIVSGRSGSGKSVALRALEDMGFYCVDNLPVVLLPDLARTLADREISAAVSIDVRNMPESPEIFEQAMSNLPDAFSPQLLFLDADRNTLIRRYSDTRRLHPLSSKNLSLESAIDKESDLLEPLRSRADLIVDTSEMSVHELAEMLRTRLLGKRERELTMVFESFGFKHGIPIDADYVFDVRFLPNPHWDPKLRPMTGLDKPVAAFLDRHTEVHNFIYQTRSYLELWLPMLETNNRSYLTVAIGCTGGKHRSVYIAEQLADYFRSRGKNVQSRHRTLEKRKP
notes: RapZ (formerly YhbJ), Escherichia coli, full length, residues 1-284; also called YhbJ; full-length RapZ (1–284); source: E. coli Rosetta, purified (Strep Trap, heparin, gel filtration)

Key:
[1] = system: RapZ full length (Strep-tag cleaved) (Escherichia coli); assay: BLI; conditions: 1 mM Mg2+; Kd values only in figure; incomplete dissociation; 5' biotin; BLI: 25 mM Tris pH 7.5, 50 mM NaCl, 50 mM KCl, 1 mM MgCl2, 1 mM DTT, temperature not stated; EMSA (GlmY): 10 mM Tris pH 7.0, 100 mM KCl, 10 mM MgCl2, 1 ug …
[2] = system: RapZ-CTD (Strep-tag cleaved) (Escherichia coli); assay: BLI; conditions: 1 mM Mg2+; Kd values only in figure; incomplete dissociation; 5' biotin; BLI: 25 mM Tris pH 7.5, 50 mM NaCl, 50 mM KCl, 1 mM MgCl2, 1 mM DTT, temperature not stated; EMSA (GlmY): 10 mM Tris pH 7.0, 100 mM KCl, 10 mM MgCl2, 1 ug …; scale: fold higher affinity than full-length RapZ
[3] = target: the molecule itself; assay: SEC-MALS + AUC; RapZ-CTD alone. SEC-MALS: 30 μM on Superdex 200 10/300 GL, 25 mM Tris pH 7.5, 200 mM KCl, 1 mM TCEP, 25°C. Sedimentation velocity AUC: 0.5–1 mg/ml, 20°C, 50 000 rpm
[4] = target: the molecule itself; assay: SEC-MALS; full-length RapZ alone, 30 μM on Superdex 200 10/300 GL, 25°C

Molecule	relative binding affinity (relative Kd-type affinity (reference)) [1]	relative binding affinity [2]	stoichiometry N [3]	stoichiometry N [4]
GlmY processed (BLI)	1	2		
GlmZ full length (BLI)	1	2		
GlmZ processed (BLI)	1	2		
B1			2	
B2				4
